Experimental data: the nanobody polyreactivity screen of Harvey et al. (2022)

Experiment: yeast display, Sf9 membrane polyspecificity reagent, FACS + sequencing; frameworks hold sequencing errors
Procedure, shortened: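 Using colony PCR, genes from sorted yeast display clones were amplified, then sequenced on MiSeq at 2 × 250 and filtered by CDR length. The clones had been stained with 10% biotinylated, detergent-solubilized Sf9 membrane reagent for 1 hour at 4 °C and sorted by FACS into low and high (top ~1%) gates on anti-HA and streptavidin fluorescence. Polyreactivity labels come from the gate of origin.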

Sequence	polyreactivity (PSR sort gate)
QVQLQESGGGLVQAGGSLRQSYAASGYIFPSLAMGWYRQAPGKEREFVAAIGRGSTNNYADSVKGRFTISRDNAIYTAYQQMNSLKPEDTAVYYCGAAASPLTRHLYWGQGTQVTVSS	low polyreactivity
QVQLVESGGGLVQAGGSLRLSCAASGSIFPGNAMGWYRPAPGKERELVAVIDFSGASTYYADSVKGRYTISRDNAKNTVYLQMNCLKPEVTADFWGQGTQVTVSS	low polyreactivity
QVQLVESGGRLVQAGGSLRLICAASGGIFGFNAMGWYRQAPGKERELVADISDGVRTNYADSVKWRFTISRDNAKNTVFLQMNSLKPEDTAVNYCATDGVYYVDGSWTLGYWGLGTQVTVSS	low polyreactivity
QVQLVESGGGLVQAGGSLRLSCAASGSTFGYNAMGWYRQAAGKERELVAGISSGGSTNYADSVKGRFTISRDNAKNTVYLQMNSLKPEDTAVYYCAAYKYDHRVDTGYDYWGQGTQVTVSS	low polyreactivity
QVQLVEAGAGLVQAGGSLRLSCAASGGIFGQYTRGWSRHAPGKERELVAGISTSGGSTYYADSVKGRFTISRDYAKNTVYLQMNSLKPGDTAVYYCAAGSYRKRVTNYSYRTPYGYWGHGTQVTVSS	high polyreactivity
QVKLVESGGGLVQAGGRLRLSCAASGSIFTYYAMGWYRQAPGKERELVAAISYGGGSTYYADSVKGRFTISRDNAKYTVYLQMNSLKPEDTAVYDCNGVLGVNYGYWGQGTQVTVSS	high polyreactivity
QVQLEESGGGLVQAGGSLRLICAASGIIFLFYALGWYRQAPGKERELVASITWSGGSTYYADSVKGRFTISRDNAKNTVYLQMNSLKPEDTAVYYCAASVKIISYLVHSEFLGGELDYWGQGTHVTVSS	low polyreactivity
QVQLVESGGGLVQAGGSLRLSCAASGSTFSFYAMGWYRQAPGKERELVAAISRSGGRTYYADSVKGRFTISRDNAKNTVYLQMNSLKPEDTAVYYCAVEVTHYIHYYYWGQGNQVTVSS	high polyreactivity
QVQLVESRGGLVQAGGSLRLSCAASGRIFGTNAMGWYRQAPGRERELVATITRGGGNTYYADSVKGRFTISRDIAKNTVYLQMNSLKPEDTAVYYCAAKFHRFAWYSHYDYWGHGTQVTVSS	low polyreactivity
QVQLVESGGGLVQAGGSLRLSCAASGSTFLTYAMGWYRQAPGKERELVAAIRWSGGSTYYADSVKGRFTISRDNAKNTVYLQMNSLKPEDTAVYYCAARSPRASGNSDYWGQGTQVTVSS	high polyreactivity
QVQLQERAAWCRRAGSLLLSCAASGNISDYYFMGWYRQAPAKERELVAAIAPGSNTYYADSVQGRFTISRDNAKKTVYLQMNSLKPEDTAVCFCAANSTQYTWFDDWGQGTQVPVSS	low polyreactivity
QVQLVESGGGLVQAGGSLRLSCAASGSTFRYYAMGWYRQAPGKEREFVATINKSGGSTYYADSVKGRFTISRDNEKNTVYLQMNSLKPEDTAVYYGATRKSGGYRYDYWGQGTQVTVSS	high polyreactivity
QVQLVESGGGLVQAGGSLRLSCAASGSTFLYYGMGWYRQAPGKERALVAGIDGTGSSTYYADSVKGRFTISRDNAKNTVYLQMNSLKPEDTAVYYCAKRYPRYRSRYYYWGQGTQVTVSS	low polyreactivity
QVQHVESGGGLVQAGGSLRLSCAASGRTFFANAMGWYRQAPGKERELVAAITSNTGSTYYADSVKGRFTISRDNAKNTVYLQMNSLKPEDTAVYYCAARGSPRKWTFHYYYWGQGTQVTVSS	high polyreactivity
QVQLVESGGGLVQAGGSLRLRCADSGFTLDVYAMGWYRQAPGKERELVAATSRSAGSTYYADSVKGRFTSSRDNAKNTVYLQMNSLKPEETDVYYCGARYPPRFGVVRGYSYYHTSTYSWGQGTQVTVSS	high polyreactivity
QVQLVESGGGLVQAGGSLRLSCAASGRTFTPYAMGWYRQAPGKERELVATISSGTSTNYADSVNGRFTISRDNAKNTVYLQMNSLKPEDTAVYYCAADGYTYKFDYWGQGTQVTVSS	low polyreactivity
QVQLVESGGGLVQAGGSLLLSCAASGFNFTYYTMGWYRQAPGKERELVAAISYSGGSTYYAESVKGRFTISRDNAKNSVYLQMNSLKPEDTAVYYCAVRVSDKYISKRFEYWGQGTEVTVSS	high polyreactivity
QVQLVESGGGLVQAGGSLRLSCAASGSTSKYYAMGWYRQAPGKERELVAAITWSDVSTYYADSVKGRFTISRDNAKNTVYLQMNSLKPEDTAVYYCNAGYDYWGQGTQVTVSS	low polyreactivity
QVQLVESGGGLVQAGGSLRLSSAASGFTFKAYVMGWYRQAPGKERELVAASTRSGSSTYYADSVKGRFTISRDNGKNSVYLQMYSLKPEDTAVYYCAARYTQRPRRNYWGQVTQVTVSS	high polyreactivity
QVQLVESGGGLVQGGGSLRLSCAASGSNLQINAMGWYRQAPGKERELVAANDWGGGDTYYADSVKGRFTISRDNAKNTVYVQMISLKPEDTAVYYCAAEGVTWYLWDFYDIYGYWGQGTQVNVSS	high polyreactivity
QVQLVESGGGLVQAGGSLRLSCAASGIIFYRNTMGWYRQAPGKERELVAAIRRGGNTYYADSVKGRFTISRDNAKNTVYLQMNSLKPEDTAVYYCAASAGPRASYYYWGQGTQVTVSS	high polyreactivity
QVQLVESGGGLGQAGGSLRLSCAASGSIFQGYTMRWYRQARGKARELVAAITRSVTSTYYADSVKGRFTISRDNAKNTVYLQMNCLKPEDTAVYYCAATAYYARYWYDYWGQGTQVTVSS	high polyreactivity

Sequence	polyreactivity (PSR sort gate)
QVQLVESGGGLVQAGGSLRLSCAASGFIFSSYAMGWYRPAPGKERELVAAISKSGGRTYYADSVKGRFTISRDNAKNTVYLQMNSLKPEDTSVYYCAKDVSDPFYDPFEYWGQGTQVTVSS	low polyreactivity
QVQLVESGGGLVQAGGSLRLSCAASGRIFVIYGMGWYRQAPGKERELVAAIRWTGGSTYYADSVKGRFTISRDNAQNTVYLQMNSLQPEDTAVYYCNAGSDRAIWPTHDYWGQGTQVTVSS	low polyreactivity
QVQLVESAGGLVQAGRSHRLSFAASGSIFYHNAMGWYRQAPGKERELVAAISGRGGSTYYADSVKGRFTISRDNAKNTVYLQMNSLKPEDTAVYYCAADARYQNGGLYYWGQGTQVTVSS	high polyreactivity
QVQLVESGGGLVQAGGSLRLSCPASGSTFQYYHMGWYRQEPGKERELVASITGSGDSTYYADSVKGRFTISRDNAKNTVYLQMNSLNPEDTAVYYCAAQITWSGYYDYWGQGTQVTVSS	low polyreactivity
QVQLVESGGGIVQAGGSLRLSCAASGRTFSSYARGWYRQAPGKERELVAAISSDGVDTYYADSVKGRFTISRDNAKNTVYLQMNSLKPEDTAVYYCNAEEGGPEYAYSYYRMDYWGQGTQVTVSS	low polyreactivity
QVQLVESGGGLVQAGGSLRLSCAASGSIFTADAMGWYRQAPGKERELVAAISRSGGRTYYADSVKGRFTISRDNAKNTDYLQMNSLKPEDTAVYYCAAAFASQYRVVKYYYWGQGTQVTVSS	high polyreactivity
QVQLVESGGGLVQAGGSLRLSCAASGFIISYYAMGWYRQAPGKERELVATINFSGAGTSYADSVKGRFTISRDNAKNTVYLQMNSLKPEDTAVYYCAARTNSPRGYGSDYWGQGTQVTVSS	high polyreactivity
QVQLVESGGGLVQAGGSLRLSCAASGLIFVFYAMGWYRQAPGKERELVAAISRSGTSTYADSVKGRFTISRDNAKNTVYLQMNSLKPEDTAVYYCNAYRYYSPYGYWGQGTQVTVSS	low polyreactivity
QVQLVESGGGLVQAGGSLRLSCAASGITFVGNAMGWSRQAPGKERELVAAMSSSGASTYYADSVKGRFTISRDYAKNTVYLQMNSLKPEDTAVYYCNAGWGVVIRRYPTYDYWGQGTQVTVSS	high polyreactivity
QVQLVESGGGLVQAGGSLRLSCAASGFTFTYYAMGWNRQEPGKERELVAAISGNGGSTYYADSVKGRFTISRDNAKNTVYLQMNRLKPEDTAVYYCNALPTSVGRWYRGDYWGQGTLVTVSS	high polyreactivity
QVQLVESGGGLVQAGGSLRLSCAASGFTLLKYAMGWYIQAPGKERELVAAITRRGGRTSYADSVKGRFTISRDNAKNTVYLQMNSLKPEDTAVYYCNADGDTGRFDYWGQGTQVTVSS	high polyreactivity
QVQLVESGGGLVQAGGSLRLSCAASGISFSQYARGWYRQAPGKERELVAAISGSGGDTYYADSVKGRFTISRDNAKNTVYLQMNSLKPEDTAVYYCNADYESVYYEDYDYWGQGTQVTVSS	low polyreactivity
QVQLVESGGGLVQAGGSLRLSFAASGRTFNTYTMGWYRQAPGKERELVAAITGTGGSTFYADSVKGRFTISRDNAKNTVYLQMNSLKPEDTAVYYCNADLEVTIGVYTDGFDSDYWGQGTQVTVSS	low polyreactivity
QVQLVESGGGLVQAGGTLRLSCAASGFIFTGYTMGWYRQAPGKERELVARISSGDSTKYADSVKGRFTISRDNAKNTVYLQMNSLKPEDTAVYYCNKRHGTYGSVYYSREGYWGQGTQVTVSS	high polyreactivity
QVQLVESGGGLVQAGGSLRLSCAASGSTFWYYAMGWYRQAPGKERELVATITTSGGNTYYADSVKGRFTISRDNAKNTVYLQMNSLKPEDTAVYYCAARRYRASSRGYGYWGQGTQVTVSS	high polyreactivity
QVQLHESGGGLVQAGGGLRLSCAASGSISSTGFMGWYRQPPGKEREPVAAIAPGTTTYYADSVKGRFTISRDNAKNTVYLQMISLRPEDTAVYYCAVFTDNRVAFLYWGQGTQVTVSS	low polyreactivity
QVQLVESGGGLVQAGGSLRLSCAATGSTFTSYAMGWYRQAPGKERELVAVISFSGGSTYYADSVKGRFTISRDNAKNTVYLQMNSLKPEDTAVYYCAARIYKRYYWGQGTQVTVSS	high polyreactivity
QVQLVESGGGLVQAGGSLRLSCAASGFTFSYYAMGWSRQAPGKERELVAAITTSGGRTYYADSVKGRFTISRDNAKNTFYLQMNSLKPEDTAVYYCAATYPRYYSGEFDYWGQGTQVTVSS	high polyreactivity
QVQLVESGGGLVQAGGSLRLSCAASGSTLTPNAMGWYRQAPGKERELVAAISRSGGSTYYADSVKGRFTISRDNAKNTVYLQRNSLKPEDTAVYYCRGYYIGIRAYGYWGQGTQVTVSS	high polyreactivity
QVQLVESGGGLVQAGGSLRLSCAASGFIFRPYVMGWYRQAPGKERELVAAISRSGSSTYYADSVKGRFTISRDNAKNTVYLQMNSLKPEDTAVYYCARRTSQEFDYWGQGTQVTVSS	high polyreactivity
QVQLVDSGGGLVQAGGSLRLSCAASGSIFGYYTMGWYRQAPGKERELVAAITSGGSTKYADSVKGRITISRDNAKNTVYLQMNCLKPEDTAVYYCAKVSYYPWRYDYWGPGTQVTVSS	low polyreactivity
